Results on two substances are retold here after patent US20040009165A1.

The target of the test is macrophage mannose receptor on murine macrophage cell line J774E (murine) (UniProt Q61830). Kind of test: cell-based or functional assay.

As to “pGC54: GCB-GGGG linker-Saposin C fusion protein (enzyme)”, the Vmax for uptake in J774E cells stood at 0.871. The figure for “Cerezyme (recombinantly produced glucocerebrosidase) (from UniProt P04062 40-536) (enzyme)” is 0.518.
